Assay results taken from the DeepSol protein solubility set.

Assay: soluble on expression in E. coli; label from the status in PepcDB or PDB records

| Sequence | soluble on expression in E. coli |
| --- | --- |
| MTTVSKPDESSFDVRTLSMKTCGSRLCVGFCYCSGVVKFRKSESVGTVDIPFPSLGACPSLTLSMSPNMNFSSRMALAPTSPMKRSKSVPNILSGEYPNSVCVVANSIDENGDAGVDVTDCASTKPLVLGKDNYQDNYWDSQETNHRNADMKTPKKKVGKISKFVNICVSELKKFKNPNSGVTSIDGVERLKKEIAPLPSSPLKLTSTSTIEFQSTVTSSSPIMRSRETTSTIQRSKIISSTTKVMSDMLMDKEGKDSEISENSINCSTNLAVNKMGDVPSLSQFEDADGLQKKLTEPVELPAKSQEVYQYDVSASPAKEDLKWSTLKKIDLIVPSFRSKKRGLVAHLKSSPISKISYDGSPSKQVGVLDGEITDDGRIDSGPAKAIIPTSTENIIMPKELNISDIGEKAEVSRGLRKRHLEDSSTPSSRGPSTPAKLITDEDATNKKKRVLGKNMVDNKASSPNKEHILPIDQLNNSSAMGISSENTAPMELKATGNDPVSDGGGYKFLVTAETGRKFDEFRAKRQRLRESWMENKSPTSNKNVQTTAVTSGFQSNEQAPENLPATMECLNKEAATTPMNDNRALLTEVGPEAALAEPKLGKPLLPVENVLQYSKSPSKTAVTNKPTKTVLKANFNAPIGKINSDISFFTPKKVFGKSEYQYGPSMGKLIQMMGTGTPKKVLPEFGSSSKTALFSPRKEEHCAGAPRGSWKIAKMRVRTKLSNFYPSSRSKNSQQIRGKWLGQNIVQFSGHHSMIAQSANDKHGANLMEISAQPSTSTTAQNI | not soluble |
| GSSGSSGMQAGKPILYSYFRSSCSWRVRIALALKGIDYEIVPINLIKDGGQQFTEEFQTLNPMKQVPALKIDGITIVQSLAIMEYLEETRPIPRLLPQDPQKRAIVRMISDLIASGIQPLQNLSVLKQVGQENQMQWAQKVITSGFNALEKILQSTAGKYCVGDEVSMADVCLVPQVANAERFKVDLSPYPTISHINKELLALEVFQVSHPRRQPDTPAELRT | soluble |
| MSLARLQFQLKVDGLEDESLVVRGFEGQESLSDSVWRCEPCYGFRYQVDLASALSNLTAEQFVDQTAHLTILRDGQVVQQINGIVRQLSKGDTGHRHTFYSLTLVPALERLSLRSNSRIFQQQSVPEIISILLQEMGIEDYAFALKRECAQREFCVQYRETDLQFLHRIAAEEGLVYSHLHEAQKHTLLFTDSSDSQPKLAKPVPYNALAGGEINLPYVVDLQFKTTAQVSHTELKDYSFKKPAYGFTQRTQGKDIAYQQPNYEHFDAPGRYKDDANGKAFSQIRLEYLRRDALLADAKSDEPLLLAGVRFDLQDHLDHAMNRDWLVVQANHQGTQPQALQEEGGSGATTYSNQLKLIPAHITWRARPCAKPQVDGPMIATVVGPQGEEIYCDNFGRVKVHFPWDRYSSSNEKSSCWVRVAQEWAGSQYGSMAIPRVGHEVIVSFLNGDPDQPIITGRTYHATNTAPYALPDHKTKTVLRTETHQGQGYNELSFEDQAGSEQILLHAQKDWDALIEHDHTEVIRHDQHLTVDNDRFTRIQRNQHLTVEGEVRSKIALDSSHEVGASLQHKVGQRIAVEAGKEISLKSGAKIVVEAGAELTLKAGGSFVKVDAGGVHLVGPAINLNAGGSAGSGSAYGGQLAAAPRMLAQAKPVAELVQPDIAASMQSGAARVIDVASLPTMMPSSANNTANDEPVAEEKTPERILKSDLLKPSDELEKLAKRQASAYRQGNHSDEVKLLQEALIKLGFDLGKAGADGDFGSKTKTAIEQFQKSYQPSHQTHPSYSIGAVDGIVGKGTLLALDEALMDGWVYENNIYQIWPLGKTSEKYESAGRGPGVISTGNGDYGGASYGCYQMSSNLGVVQKYIQSSKFKEFFSGLNPATKEFNVVWQDIASRYPQEFREEQHQFIKRTHYDIQIGHLRGKGLLFEHNRAAVHDLIWSTSVQFGGRTNLIFNALNGQNMESMTDKDIIILVQDYKLVNTERLFKSSPSWWSDLKKRAVSEKKALLELEIDGLEVDIKEGGSHHHHHH | not soluble |
| GSKQVITEQIANDLVKEVVNSSVISIVKREFSEANYRKDFIDTMTRELYDAFLHERLYLIYMDSRAELKRNSTLKKKFFEKWQAS | soluble |
| MGSDKIHHHHHHMVRPASRSERASLRIMNINPWRCEVSEKLLKQVNDKVSLCEKIAAEGFSFVPGQQIREWLLASNSEALQDWQAFDASWDGMPLDEYMADGGRYRRRRFATLSAATEGPIMLEPHQPHYQSREYNSLNGGIARIYEPIPPAVIQGQTMQSILQLSRDLFSHLRPQTRWHIEAHQFRIETNQHERGQPAPEGVHRDGVDYVLVMMVKRVNISSGTTTLHNLDKVVLDSFTLTNPLDCALVDDRRCMHGVTPVEQIDPAKAAYRDVLVVTFTAKL | not soluble |
| MLEHRRLFPGRRYDSRVYRSCASPMPYLLEEKLRGTAMEQRTPPSEAVISGPATPGLAEGKISAYLLDLATRTLRPPTFPPLSDSTVTAKDTVCLVGGPELAWLAVGMTPFRNITSVTLQQGELKSCSLQESMEWMRLAHLLKAAPEQVNGDGGEALALQRRLAAVRTDLVLLDLLANGHPTTGLPQVLATPFADVLDAYVDMEKEQHSAAAPSAPQNVGRLRSVLFDEEPVTGVHLEQPSLRLRLVSLQQLLVRIVRALSGAHVGLPAGNRPTPHAATLLEMTLQTHGLLCGGGVPSQAWSPTPDPADASSGGSSTAALNGTVLLDKFPRLSAEMLLQHVTYLLSNEAKQRTANAADGAGEGSDSIYLSPQRTRHFGLTGVETLLLSATQAEQVNQVLPLYVRGHTLPDEVASDITQTRNIHEAVRKTQRVLSRVLQQASQELASQSGSGTAAVDDAGHNGPHPALAHLPSHLFVRTAGARGPPPGWEYYGVHLGIKAEAMNVRYNLNASDTATLHLIDSSGSSNSGGVTATAGSEVGAESTRSGMPG | not soluble |
| MYHLKKILEVKQVNKTYSMDGNANYHVLKNIDLEVYEGEFVSVMGPSGSGKSTLLYNISGMDQMSSGSVKIDSKELSCMKEEELAKLRLTEIGFIFQQSNLLRNLNLFDNIILSAYLAKCESKKIVNKRALELMENMGISDIASHYITEASGGQLQRVSICRALINNPNIIFADEPTGALNLKSTEEVMQILLNINRDGTTIMLVTHDVKVAAKTERILFMADGEIVSEIQLGKLRNDDLKAREEKLLNWLAVLGF | not soluble |
| MGSDKIHHHHHHMTLLLKENDVINLLDYKQIYGALVNAFLLFENKFAINLERSRISFHGTTLTFQAAGMENYIGYKTFISGNHLTFLYDTSGNLLSIIESDRLSQARTAVLSILATDYVYGDFSSLGVIGLGKYGLAIVEIANQLKKGIKINVFTPSQQRMEKALSILRGEGIDVSPKDSIKRVCEESEVVTTITKAKDPFLKLEYVNNKRIHINAMGSNIPEKIEIFPEVIKASNLIVVEELEHEFKRIRRVSHRKRMGMLDMSKITLLSWILSRKINVQKEGITIFKSVGIGLEDLAVGKLIYEKALSKGLGTEIEVKGVWYRESEKK | not soluble |
| QGMNNPADAGINLNYLANVRPSSRQLAWQRMEMYAFLHFGMNTMTDREWGLGHEDPALFNPRNVDVDQWMDALVAGGMAGVILTCKHHDGFCLWPSRLTRHTVASSPWREGKGDLVREVSESARRHGLKFGVYLSPWDRTEESYGKGKAYDDFYVGQLTELLTQYGPIFSVWLDGANGEGKNGKTQYYDWDRYYNVIRSLQPDAVISVCGPDVRWAGNEAGHVRDNEWSVVPRRLRSAELTMEKSQQEDDASFATTVSSQDDDLGSREAVAGYGDNVCWYPAEVDTSIRPGWFYHQSEDDKVMSADQLFDLWLSAVGGNSSLLLNIPPSPEGLLAEPDVQSLKGLGRRVSEFREALASVRCEARTSSASAAAAHLVDGNRDTFWRPDADDAAPAITLTLPQPTTINAIVIEEAIEHGQRIEHLRVTGALPDGTERVLGQAGTVGYRRILRFDDVEVSSVTLHVDGSRLAPMISRAAAVRI | soluble |
| MNALVAHNSEAWDKKVETGNEWTVAVEQQVIEQAKKGNWDIRVTPMKDVPKDWFPPIKGLKVLCLASGGGQQGPVLAAAGADVTVLDNSEKQLNQDRMIAERDGLTIHTVKGSMDDLSVFNDESFDVIVHPVANVFVENVLPVWKEAYRVLKRNGILISGFVNPVVFLFDTVLEQQGVLKVKHSIPYADPEDLPKHKVKELIENNEALEFGHSLEDQIKGQIDAGFIVTGFYEDKGGFVLDQYIHTYSATRSVKVLEHHHHHH | soluble |
| MTIWLVTRHPGAIEWVARQGIQWDKHAAHLDPCEITAGDTVIGSLPINLAAEICNRGARYFNLSLNLPAHLRGRELDAATLTACEARLEEYIVKKVNS | not soluble |
| MGSDKIHHHHHHMSIIDSQESTLYQQLAETFATAIHQGTLAPGSRLPSIRRVAGSHQVSVNTVLNAWRILEDRGLIEARPQSGYFVRGRLPSLTESKPHRAQVIVPGSEKLDLIDTVFAAQTHPDYTNISLACPQHTDFYPTEKISRIAASLLRRQPELIGRYALPPGSERLRREVARRAMDLGMTLTREDITITHGCMEALQLALRTVTQPGDCVGLETPTYFYLFPLLASLGLKTVEIPTDPQRGLSLDALELLLSENRLQAIIAMPNAQNPLGCSMTLADKKRLAKLVNDYQVPLIEDGLYSELQFTWPLSPTVKAFDREGWVIYCSSFTKTLAPDFRIGWMASGRFRAQVARLKAVSSMAESALLSETLAQFLESGGYDHHLRTLRRRYAAQMDEARGLIARHFPQGTRATQPQGGFVFWLELPGGVDGVELFHRLLQEKICVTPGELYTLSGRCKHALRLSCCYPFDERYTYALKRAGALACEMSGIGPGNEG | not soluble |
| GSRRASVGSMSKKPPNRPGITFEIGARLEALDYLQKWYPSRIEKIDYEEGKMLVHFERWSHRYDEWIYWDSNRLRPLERPALR | soluble |
| MGSDKIHHHHHHMKDLSSIVAKFNTQGTITEIKPLGAGLINDTYKVNTQEADAPDYVLQRINHAIFQNVEMLQSNIAAVTGHIRKKLTEAGEADIDRKVLSFLATEEGKTYWFDGESYWRVMVFIPRAKTYETVNPEYSNYAGEAFGNFQAMLADIPETLGETIPDFHNMEFRLKQLRDAVAANAAGRVAEVQYYLDEIEKRADEMCKAERLFREGKLPKRVCHCDTKVNNMMFDEDGKVLCVIDLDTVMPSFIFSDYGDFLRTGANTGDEDDKDLNRVNFNMEIFKAFTKGYLKGAKSFLTPIEIENLPYAAALFPYMQCVRFLADYINGDTYYKIKYPEHNLVRTKAQFKLLQSVEEHTPEMVAFINECLVNG | not soluble |
| MEGLFESLPEGYREKLGRPGEYPFTRGIYPRMYLERLWTMRQYAGFSTAEESNARYRYLLSQGQTGLSVAFDLPTQLGLDPDHPMSVGEVGRVGVSIATLEDMQKLFDGIPLDQVSTSMTINAPAMMLLALYLLVAEAQGVPWDKVSGTVQNDILKEYFARGTYIYPPGPSMRLVTDIFEFCAAHVPRWNTISISGYHIREAGSTAAQEIAFTLADAKAYVRAALERGLDVDRFAPRLSFFFAAHGDIFEEAAKFRAARRLWARIMREEFGAKDPKSWMLRFHTQTGGSTLTAQEPLNNVVRTAYQALAAVLGGTQSLHTNAYDEALGLPTEKSALLALRTQQILAYESGVTRAIDPLGGSFYVEHLTDKLEREAEQILREIDALGGAVAAVEAGYFQRALEESAWQFQKEVEEGKRVIVGVNRFFDPNSPLNEPVPVQRIDPELHERRKRELAAFKANRDGESVRVGLERLREAARGEENLFPYVLEAFRRRATLGEVCGVLREEWGEYQPPR | soluble |
| MTTPAVKMVVAYVTAPSKEVAMTVARTTVTEALAACANVIPEVTSVYKWQGKIEEDQEHVVILKTVESKVEELSARVRSLHPAETPCFFTLAIDKITPDFGGWIVDSTNSSTAKH | soluble |
